These results are taken from US20220324955A1.

In the assay the target is human neonatal Fc-receptor (FcRn) (human) (UniProt P55899). The experiment in a line: FcRn affinity column chromatography.
Sequence of human neonatal Fc-receptor (FcRn) (human) (P55899 24-297 limits assumed, chain 1 of 2): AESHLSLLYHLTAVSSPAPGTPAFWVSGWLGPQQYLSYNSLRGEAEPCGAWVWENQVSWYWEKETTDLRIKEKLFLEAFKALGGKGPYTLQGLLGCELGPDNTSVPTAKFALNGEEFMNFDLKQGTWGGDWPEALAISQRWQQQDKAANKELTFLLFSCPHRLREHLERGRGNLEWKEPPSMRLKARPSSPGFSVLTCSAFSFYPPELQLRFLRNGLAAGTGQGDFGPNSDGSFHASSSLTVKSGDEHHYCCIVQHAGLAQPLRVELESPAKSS
Sequence of human neonatal Fc-receptor (FcRn) (human) (P61769 21-119 limits assumed, chain 2 of 2, further chain): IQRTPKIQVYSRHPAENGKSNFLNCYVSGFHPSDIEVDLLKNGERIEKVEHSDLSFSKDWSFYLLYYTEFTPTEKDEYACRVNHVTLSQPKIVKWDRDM

On to “IgG1 Fc-region with L234A/L235A/P329G and symmetric Y436A”, for which the FcRn-affinity column retention time came out at 41.3 min. “anti-HER2 antibody, symmetric mutation E430H”: the retention time is 46.4 min. The substance “anti-HER2 antibody, symmetric mutation K288E” gave a retention time of 45.2 min. For “anti-HER2 antibody, symmetric mutation K290H”, the retention time stood at 46.2 min. “anti-HER2 antibody, symmetric mutation K317H” displayed a retention time of 46.3 min. Still for that read-out and setting: to “anti-HER2 antibody, symmetric mutation L309H” belongs 45.5 min; to “anti-HER2 antibody, symmetric mutation N434H”, 52 min; to “anti-HER2 antibody, symmetric mutation Q311H”, 46.3 min. The substance “anti-HER2 antibody, symmetric mutation R255D” had a retention time of 41.4 min. In turn, “anti-HER2 antibody, symmetric mutation T256H” had a retention time of 46 min.
